We go through two molecules from PMC3433420, “Comprehensive Binary Interaction Mapping of SH2 Domains via Fluorescence Polarization Reveals Novel Functional Diversification of ErbB Receptors” (PLoS ONE, 2012).

Assay [1] deals with T1, SRC SH2 domain (human, UniProt P12931-1 151-248).
T1 construct: SRC, human; also called c-Src; source: bacterial expression, purified
Put plainly: fluorescence polarisation; competition: rhodamine peptide 10 nM, protein at four times its KD, unlabeled competitor peptide in 11 serial 1:3 dilutions; Ki from IC50, one-site model. The following applies: both partners purified. In general terms: Fluorescence polarisation rises when a labelled molecule tumbles more slowly, as on binding a larger partner.

The target in assay [2] is T2, GRB2 SH2 domain (human, UniProt P62993 60-152).
T2 construct: GRB2, human; source: bacterial expression, purified
As to the kind of experiment: fluorescence polarisation; saturation binding in solution: rhodamine peptide fixed at 10 nM, protein titrated 0.002-10 uM, 20 min at room temperature; assay buffer 20 mM HEPES, 100 mM KCl, 0.1% Tween-20, 5 mM DTT, pH 7.8; apparent KD. The following applies: both partners purified.

Non-standard residues stand in square brackets, D forms with d. No end group written: not given here. pY = N[C@@H](Cc1ccc(OP(=O)(O)O)cc1)C(=O)O; rhodamine = not defined here

T2 sequence (P62993 60-152): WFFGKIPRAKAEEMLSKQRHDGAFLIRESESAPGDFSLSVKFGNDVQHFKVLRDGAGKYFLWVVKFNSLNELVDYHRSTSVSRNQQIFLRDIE

B1: ErbB3pY1222 phosphopeptide, unlabeled competitor (peptide)
peptide: EELG[pY]EYMDVGSD
notes: human ErbB3 around Tyr1222; source: synthetic peptide
With B1, in assay [1], the affinity corresponds to a Ki of 2.36 µM.

B2: ErbB4pY1208 phosphopeptide, rhodamine-labelled (peptide)
peptide: rhodamine-NEPL[pY]LNTFANTD
modifications: reading uncertain
notes: human ErbB4 around Tyr1208; the labelled form stood in the FP saturation assay behind Ki (exp FP); source: synthetic peptide
As for B2, the Kd in assay [2] worked out at 1.46 µM.
